In patent US20180346602A1:

Columns and labels:
[1] = target: anti-VEGF/ANG2 antibody (IgG1 subclass with mutations P329G/L234A/L235A/I253A/H310A/H435A) (human) [IgG part: P01857]; assay: sandwich ELISA in serum; M1.3.17-Bi capture on SA plate; tracer anti-human kappa M1.7.10-Dig; analyte 0 ng/mL (blank)
[2] = target: anti-VEGF/ANG2 antibody (IgG1 subclass with mutations P329G/L234A/L235A/I253A/H310A/H435A) [IgG part: P01857]; assay: bridging ELISA; biotinylated and digoxigenylated anti-VEGF/ANG2 antibody bridged by M1.3.17 at 31.25 ng/mL
[3] = target: anti-VEGF/ANG2 antibody (IgG1 subclass with mutations P329G/L234A/L235A/I253A/H310A/H435A) [IgG part: P01857]; assay: bridging ELISA; biotinylated and digoxigenylated anti-VEGF/ANG2 antibody bridged by M1.3.17 at 125 ng/mL
[4] = target: anti-VEGF/ANG2 antibody (IgG1 subclass with mutations P329G/L234A/L235A/I253A/H310A/H435A) [IgG part: P01857]; assay: sandwich ELISA in serum; capture M1.3.17, tracer M1.7.24; anti-VEGF/ANG2 antibody 0 ng/mL (blank)
[5] = target: anti-VEGF/ANG2 antibody (IgG1 subclass with mutations P329G/L234A/L235A/I253A/H310A/H435A) [IgG part: P01857]; assay: sandwich ELISA in serum; capture M1.3.17, tracer M1.7.24; anti-VEGF/ANG2 antibody 312.5 ng/mL
[6] = target: anti-VEGF/ANG2 antibody (IgG1 subclass with mutations P329G/L234A/L235A/I253A/H310A/H435A) (human) [IgG part: P01857]; assay: sandwich ELISA in serum; M1.3.17-Bi capture on SA plate; tracer anti-human kappa M1.7.10-Dig; analyte 0.625 ng/mL
[7] = target: anti-VEGF/ANG2 antibody (IgG1 subclass with mutations P329G/L234A/L235A/I253A/H310A/H435A) [IgG part: P01857]; assay: bridging ELISA; biotinylated and digoxigenylated anti-VEGF/ANG2 antibody bridged by M1.3.17 at 0 ng/mL (blank)
[8] = target: anti-VEGF/ANG2 antibody (IgG1 subclass with mutations P329G/L234A/L235A/I253A/H310A/H435A) [IgG part: P01857]; assay: bridging ELISA; biotinylated and digoxigenylated anti-VEGF/ANG2 antibody bridged by M1.3.17 at 15.625 ng/mL
[9] = target: anti-VEGF/ANG2 antibody (IgG1 subclass with mutations P329G/L234A/L235A/I253A/H310A/H435A) [IgG part: P01857]; assay: bridging ELISA; biotinylated and digoxigenylated anti-VEGF/ANG2 antibody bridged by M1.3.17 at 250 ng/mL
[10] = target: anti-VEGF/ANG2 antibody (IgG1 subclass with mutations P329G/L234A/L235A/I253A/H310A/H435A) (human) [IgG part: P01857]; assay: sandwich ELISA in serum; M1.3.17-Bi capture on SA plate; tracer anti-human kappa M1.7.10-Dig; analyte 2.5 ng/mL
[11] = target: anti-VEGF/ANG2 antibody (IgG1 subclass with mutations P329G/L234A/L235A/I253A/H310A/H435A) [IgG part: P01857]; assay: sandwich ELISA in serum; capture M1.3.17, tracer M1.7.24; anti-VEGF/ANG2 antibody 78.125 ng/mL
[12] = target: anti-VEGF/ANG2 antibody (IgG1 subclass with mutations P329G/L234A/L235A/I253A/H310A/H435A) [IgG part: P01857]; assay: bridging ELISA; biotinylated and digoxigenylated anti-VEGF/ANG2 antibody bridged by M1.3.17 at 62.5 ng/mL
[13] = target: cytokine (IL-2) antibody conjugate with the mutations P329G, L234A, L235A, I253A, H310A, and H435A; assay: sandwich ELISA in serum; capture anti-IL2 antibody, tracer M1.7.24; conjugate 625 ng/mL
[14] = target: anti-VEGF/ANG2 antibody (IgG1 subclass with mutations P329G/L234A/L235A/I253A/H310A/H435A) [IgG part: P01857]; assay: sandwich ELISA in serum; capture M1.7.10-Bi, tracer M1.7.24-Dig; anti-VEGF/ANG2 antibody 0.625 ng/mL
[15] = target: anti-VEGF/ANG2 antibody (IgG1 subclass with mutations P329G/L234A/L235A/I253A/H310A/H435A) [IgG part: P01857]; assay: sandwich ELISA in serum; capture M1.7.10-Bi, tracer M1.7.24-Dig; anti-VEGF/ANG2 antibody 0.0390625 ng/mL
[16] = target: anti-VEGF/ANG2 antibody (IgG1 subclass with mutations P329G/L234A/L235A/I253A/H310A/H435A) [IgG part: P01857]; assay: sandwich ELISA in serum; capture M1.7.10-Bi, tracer M1.7.24-Dig; anti-VEGF/ANG2 antibody 0.15625 ng/mL
[17] = target: anti-VEGF/ANG2 antibody (IgG1 subclass with mutations P329G/L234A/L235A/I253A/H310A/H435A) [IgG part: P01857]; assay: sandwich ELISA in serum; capture M1.7.10-Bi, tracer M1.7.24-Dig; anti-VEGF/ANG2 antibody 0.01953125 ng/mL
[18] = target: cytokine (IL-2) antibody conjugate with the mutations P329G, L234A, L235A, I253A, H310A, and H435A; assay: sandwich ELISA in serum; capture anti-IL2 antibody, tracer M1.7.24; conjugate 1250 ng/mL
[19] = target: anti-VEGF/ANG2 antibody (IgG1 subclass with mutations P329G/L234A/L235A/I253A/H310A/H435A) [IgG part: P01857]; assay: sandwich ELISA in serum; capture M1.7.10-Bi, tracer M1.7.24-Dig; anti-VEGF/ANG2 antibody 2.5 ng/mL
[20] = target: cytokine (IL-2) antibody conjugate with the mutations P329G, L234A, L235A, I253A, H310A, and H435A; assay: sandwich ELISA in serum; capture anti-IL2 antibody, tracer M1.7.24; conjugate 78.125 ng/mL

Row | Binder | signal [OD405 nm] [1] [OD405 nm] | signal [OD405 nm] [2] [OD405 nm] | signal [OD405 nm] [3] [OD405 nm] | signal [OD405 nm] [4] [OD405 nm] | signal [OD405 nm] [5] [OD405 nm] | signal [OD405 nm] [6] [OD405 nm] | signal [OD405 nm] [7] [OD405 nm] | signal [OD405 nm] [8] [OD405 nm] | signal [OD405 nm] [9] [OD405 nm] | signal [OD405 nm] [10] [OD405 nm] | signal [OD405 nm] [11] [OD405 nm] | signal [OD405 nm] [12] [OD405 nm] | signal [OD405 nm] [13] [OD405 nm] | signal [OD405 nm] [14] [OD405 nm] | signal [OD405 nm] [15] [OD405 nm] | signal [OD405 nm] [16] [OD405 nm] | signal [OD405 nm] [17] [OD405 nm] | signal [OD405 nm] [18] [OD405 nm] | signal [OD405 nm] [19] [OD405 nm] | signal [OD405 nm] [20] [OD405 nm]
1 | anti-variant (human) Fc-region antibody M1.3.17 (antibody, V domains shown) VH: EVKLLESGGGLVQPGGSLKLSCAASGIDFRRYWMNWVRQAPGKGLEWIGEIDPDSSTINYTPSLKDKFIISRDNAKNTMYLQMRKVRSEDTALYYCARPYDYGAWFAYWGQGTLVTVSA VL: QAVVTQESALTTSPGETVTLTCRSTTGAVTTSNYANWVQEKPDHLFTGLIGGTNKRAPGVPARFSGSLIGDKAALTITGAQTEDEAIYFCALWYSDHWVFGGGTKLTVL | 0.074 | 0.054 | 0.085 | 0.175 | 0.658 | 0.314 | 0.046 | 0.05 | 0.15 | 0.987 | 0.301 | 0.063 |  |  |  |  |  |  |  | 
2 | anti-variant (human) Fc-region antibody M1.7.24 (antibody, V domains shown) VH: EVKLLESGGGLVQPGGSLKLSCAASGFDFSRYWMNWVRQAPGKGLEWIGEITPDSSTINYTPSLKDKFIISRDNAKNTLYLQMIKVRSEDTALYYCVRPYDYGAWFASWGQGTLVTVSA VL: QAVVTQESALTTSPGETVTLTCRSSTGAVTTSNYANWVQEKPDHLFTGLIGGTNKRAPGVPARFSGSLIGDKAALTITGAQTEDEAIYFCALWYSNHWVFGGGTKLTVL |  |  |  |  |  |  |  |  |  |  |  |  | 0.811 | 0.468 | 0.072 | 0.147 | 0.057 | 1.46 | 1.44 | 0.152
